From the DeepSol protein solubility set

Experiment: soluble on expression in E. coli; label from the status in PepcDB or PDB records

Q: With “MTYILKTNQLTKVFKGKEVISSVNMHVKKGEIYGFLGPNGAGKTTIMKMITNLIKPTSGEIEIFGEKLTDTSYEVLKRMGTIIEYPIFYDKLTAKENLELHCEYMGYYDKNEIDHALHLVKLQGIDNKKVKDFSLGMKQRLGIARAIVTKPELLILDEPINGLDPIGIKELRDLFKMLCKEYGITLLVSSHILGEMELMADTIGVIQNGKLIKEVSMKSINGKQTEYIEITVPDVKRAAYILEDKLGIKNYKIMSGNMIRVYDTAVSQQAISKALIMNDVEIESINKKHSSLEEYFLNVMDGEGIHA” as the sequence, how does the “soluble on expression in E. coli” value read?
A: not soluble

Q: With “MTRVLVLGGGSGGLVAANKVKRLLGKEVEVTLVDRNTHHEFMPAYPWVAFGMREPEAIRRPLANLEKRGIRYLQATVEALDPERNRVKTTAGELSYDYLIVSLGAEALPSPAQDGHAPWSLEGALKLREALRTFKGGKVVVGVSSPYYPCPPAPYEVAGQVEFALKVKGVRDKSTVEVFHLNPAPLAGMGPVISGKVLEILKSKGIAFHGGFEPVEFAGGKVKAKDGRELSYDLLILTPPFAPNRVVRESPLAGPQGFPEVDRMTFRSPRFPNVFVIGDTVNPALMLPPAGVVAHFQGEYVAGVIASDLKGAYIGEPFNPVAMCIMDFGDNALLPQCAFDRVLAGTGMPSCGVMAVGKWVRVTKMLFEGFWFATLIELEHHHHHH” as the sequence, how does the “soluble on expression in E. coli” value read?
A: soluble

Q: Which “soluble on expression in E. coli” value does the source give for “MKKLNFSELNWINTPENFSITENELVIHTSPDTDFWRGTYYGLEYNNAPGIVMRSEERFWTLKSKVAFESNMFFDQCGMLIYIDDNNWMKSGIEYQSNGYQQLFSVVTNNGFSDWAMTNLDRVTQTMYYRLSRRGNDFLLEHSADGKIFNMMRMFHMFQAYTTVQFGFFASSPGDSSFAAHFSEIEWTECLWDAHTSSRFLEHHHHHH” here?
A: not soluble

Q: With “KVGFKIGGGMEYGFNEIWSLQPSLFVSSKGAKKDELSVNAVYLELPVMAAARFKVADNTNIVLSAGPYFACGIAGNSKVDLGKGRLEVDTFGDDGLLKRGDVGLGIGVAAEFGKIIAGLDGQFGFVDVMDNVNGKNLNLSISVGYKF” as the sequence, how does the “soluble on expression in E. coli” value read?
A: not soluble

Q: With “SPEIMKDLSINFGKALDTCKKELDLPDSINEDFYKFWKEDYEITNRLTGCAIKCLSEKLEMVDADGKLHHGNAREFAMKHGADDAMAKQLVDLIHGCEKSIPPNDDRCMEVLSIAMCFKKEIHNLKWAPNMEVVVGEVLAEV” as the sequence, how does the “soluble on expression in E. coli” value read?
A: soluble

Q: With “MGSDKIHHHHHHMRTPTCDITTHERWFGAFTAPYLEEGPEHVGPVRLKIEHTHHVLSNARSIVDSEDFSPLVQRAALLAALYHDTGRFPQYRRWRTFSDPRSVNHALLGGRTLREAGALDDEPVEVRRLVLGAVVMHNRFRVPSGIPDDARTVTDVVRDADKLDIFRVMAPHLAPGAERDKVVVLHVEDAPGKWSPVIVADVLAGRVASYADLRYVNDFRLLLGTWVRDLRFPASRRMLAASGLVENILSALPASDDIARARTRILSDLADAARGRGGA” as the sequence, how does the “soluble on expression in E. coli” value read?
A: not soluble

Q: For “MGSDKIHHHHHHMYDLQELEAFVSVVRTGSLTASTRDLGLPKSTLSRRIRQLEENVGQPLLLRQSRKIVPNDAGRVFYRYCNDILELVVQGREALDELKAEVTGKLELRCHESFVRGWFSGVVESFMADHDDLRVAIHTQRNLPEAVEDGVCIWLGETGETALRQEVLGVLKQGIFGSPAYFRQHGKPAAPGELAHHPWVDLLGMADTGVILHHSRQGNFPLSLPDRRFTVDQFNVQGDAIAAGRGLGLMPVWLVERRLTAHPGSFQSCLPEWYGPDLPVTLLYPHGVLPRRVRAFIAHLRSCIPEEWTGGGGTATQAVPKSGTHHSNT”, which “soluble on expression in E. coli” value is on record?
A: not soluble

Q: Which “soluble on expression in E. coli” value does the source give for “MSLGIKVVLLEKAHEIGEIGAGIQLGPNAFSALDSLGVGEVARQRAVFTDHITMMDAVNAEEVVCIETGQAFRDHFGGPYAVIHRVDIHASVWEAVLTHPDVEYHTSTNVVDIRETEDDVTVFDDRGNSWTGDILIGCDGVKSVVRQSLLGDAPRVTGHVVYRAVIDRADMPEDLRINAPVLWAGPHCHLVHYPLRGGKQYNLVVTFHSRQQEEWGVKDGSKEEVLSYFEGIHPRPRQMLDKPTSWRRWSTADREPVAKWGTKRITLVGDSAHPVAQYMAQGACMALEDAVTLGKALAQCEGDAAQAFALYESVRIPRTARIVWSTREMGRVYHAAGVERQVRNLLWKGKSQAEFYRGMEWLYGWKEDNCLQPREGHHHHHH” here?
A: not soluble

Q: For “MAHHHHHHMVIFFGRAQTRRVTGKVVVFGATTNVGKHLSLLLTLSPQVKELCCFDPLNDVTLRMTETRVRGIVKDLSHIDTGVVLRAVDDPQQWEPAMRNAQLVLICTGSIPNPSRLQRDLALAECAPEYLVAMELVARAAPHAIVGIASGPVNSLVPLAREVLLRHSAFDPRKLFGITSRDVMRTRVLFAKELHMNPYDVNVHVVGGKGDATVCPLITQTGFQLPHQRMVQLCEEVQRPENFTAGDHNSTGCRVDSQNVQGQEKFTCPTLSTANAAYEWVTSIMKAQRGDRGITECSFVESSIKRETPFFSSRVELGEEGAAQLLPLGALTPYEEELVAAAVPLIVEDVEAGLRLSKTGVDAVS”, which “soluble on expression in E. coli” value is on record?
A: not soluble

Q: With “SAGTQLFRFREEPGPGGNRAVLEVRVPQVLHVQYGMYVWPCAVVLAQYLWFHRRSLPGKAVLEVGAGVSLPGILAAKCGAKVILSDSSEFPHCLDICRQSCQMNNLPQVEVVGLTWGHISKDILSLPPQDIILGSDVFFEPEDFESILATVYFLMQKNPKVQFWSTYQVRSADWSLEGLLYKWDMKCVHIPLESFDADKEDIAESTLPGRHTVEMLIISFAKDSF” as the sequence, how does the “soluble on expression in E. coli” value read?
A: soluble

Q: For “MGSDKIHHHHHHMILSRGRNYVFIHIPKTGGTALALALESRAMAGDEMLGDTPKAVKRRRRLHGTETRGRLWKHSTLADIEGLASREELRQMFAFTLVRNPFDRVVSLYHWLKEQSFDHPMVPLAHSLPFTSFVTDPLVMRALKSQPALSYMMQSDGYEHCSLYIRLEYFAKDAAPLFDHLGFALELPRVNESRRDPDWRVYYDSQAVDAVRTCCQLEIERFEYSFNDYPLSL”, which “soluble on expression in E. coli” value is on record?
A: not soluble

Q: Which “soluble on expression in E. coli” value does the source give for “MGSDKIHHHHHHIYCSGKLLQTVMAVQLYPDSKTFVDQPMKENQTGKSIMEHFEKRFPVSIEKITKKDVAEFVDEFFDKEGNELDVCDLPDWRPITEQLANIKDASYQAFAQRLHFIWIQLCRQIKPEVKNDPSRFSLIYVPYQFILPGGRFREFYYWDAYWILKGLIASELYSTARMMILNFAHIIETYGFVPNGGRVYYLRRSQPPFFAPMVYEYYLATQDIQLVADLIPVIEKEYTFWSERRTVNVTYEHPDLNETLHMFQYRTEAETPRPESFREDVLSAEHFTTKDRKKQFFKDLGSAAESGWDFSSRWFKNHKDISTIETTNIVPVDLNAFLCYNMNIMQLFYKLTGNPLKHLEWSSRFTNFREAFTKVFYVPARKGWYDYNLRTLTHNTDFFASNAVPLFSQCYDPLNSQIAVDVYNEMQNSGAFSIPGGIPTSMNEETNQQWDFPNGWSPMNHMIIEGLRKSNNPILQQKAFTLAEKWLETNMQTFNVSDEMWEKYNVKEPLGKLATGGEYEVQAGFGWTNGAALDLIFTYSDRLQYNGPILESLVGSQTTSMKSSPDSSTSLPIDITTTITTSSSSSTFGYSNILTLITVFVLYIL” here?
A: not soluble

Q: With “MNKKYPKINYIGNKEKIASWICDQLPSDVDTVADVFSGGCSFAYEAKKRGYRVITNDILAINYQIALALIENNHETLNDDDVAMIFSGSPHAGFMSQRYSEKFYFHDECQQLDLYRKNIGKLNNQYKRALAFTLMRRAMIRKMPYSRFTIPWEKVKQLRDEEYSYAKYGRRRAYHNESFQSHFLQNLDDYNQAVFNNGWRHHAFNQDIFDLLPNIQADAVYLDPPYTGTMNNYFGFYGLLDSYITSSIPKPFANHFMDKKQAVELFKRVINHLKPFKYWLLSYNNASYPNRDELEEMLGKNGRNVQILETPHVYKVTGKEKKQSHKEILFLVENT” as the sequence, how does the “soluble on expression in E. coli” value read?
A: not soluble

Q: With “WLRPAFAGKTRLDALDEAAFEQAVKSLLSWTQHALIDRHVPAHIIVPSGMGRHIDYGLADDGTPQPPVLSVKLQELFGLPDTPRIAKNRIPLTLHLLSPGGRPLQVTQDLKSFWTNTYPEVKKEMKGRYPKHPWPDDPWTATATHRTKSPGK” as the sequence, how does the “soluble on expression in E. coli” value read?
A: not soluble

Q: With “MAHHHHHHMTSLTEEHEILIDEPPQFTAAAEVIAVGAEEPTVATPEEFTSAQEAGAFLQTPVGTPPATPTSVPTTPSPNEMAAKHARKRWRMEQLALQESVKVVESEPISRRGHSRKAEMSEFAITKAATLNTAPTLLSMSPNIIDTNVTMLGTKRVPLDNFLKVTVLHPKVTPVNLKLEFIDPVLEPVQLSRHQLGNRVTPNEGEGGGMSVKKKRGRKPLVASPSIEEAKAVESGYNAE” as the sequence, how does the “soluble on expression in E. coli” value read?
A: not soluble

Q: For “MYNNEPGAQSDPTLGYTFQNDFLALSQAFSLPEIDYTDISQREQLAAAIKRWPLLAEFAQPHSLRKP”, which “soluble on expression in E. coli” value is on record?
A: not soluble

Q: Which “soluble on expression in E. coli” value does the source give for “MGSDKIHHHHHHMITASIVTYHHHFKDIRKVIECILSSPVSILYIIDNSSNDRLRELAKISAKIKYIHSVNLGYGAGHNIAIRESIDIGATYHIVVNPDIYFEEGVIEKLIIYMNKYSEVGLVMPRVLYPNGELQYLCKLLPTPFDLLFRRFLPWRRYVEKKNEKYELRFTNYSREMEVPSLSGCFMFVRIAVLKKVGGFDERYFMYAEDLDLCRRIGKVSRTMYYPNVVVYHEYAKGSYKNRRLLRYHLSSVVKYFNKWGWVWDLDRKIINKRILDNLKNV” here?
A: not soluble

Q: Which “soluble on expression in E. coli” value does the source give for “SLARSPSVSAGTRPHAGEHTDTSPISSAVSAPSPSSLPLVFSPQPSVSSSSLPLSSSSLARVSSSPQPSASSASLPLSSSRQSGEALGSSGAASSESSRERQGKLRLRHPRQRKPFLLQVLHAEHRCHNPRELARVQRAGGSIFAGRVGGVLEPSRSVGDFDVKDAQPPGVLIATPEVCRVKVRKPTLVLLGTDGVWDMLCSADVLACVKKVTQFWQLLLAAFRERMEELQEEATEKQENEKERGEGDQVRESSGNGKG” here?
A: soluble

Q: With “MSIESKIRQLIDQNGYITCDVLMQEVLNLNPTSYYKQVKSLANEGDFVTAPEISQLFGEIIGLWCIREWQRIGCPKSLSLVELGPGRGLLMRDLLRTAKLVPEFYKALSIELIEINKNFIAYQKANLQDINLPISHQSFVEDIPKKPTIIIANEFFDAIPIKQYIKVKELWYERIFVVQPVDERIKYDKISVNKQLQEYLLCTHIEAKDGAVLEESYKSIEIIKFIAQHLKRLSGSGLIIDYGYDIAPNGRTRYQYNQTLQAVKNHKYCPILENLGEADLSAHVDFYALKTVAKNSKINVIDTISQRDFLIENGILLRKQTLQDKLNDRHLAKFAYREEFKGDTKRSTAAYTLVREDASIGSTYKLPLEVEFGKMSEQAQIIERQVERLISPKQMGELFKVLQIMN” as the sequence, how does the “soluble on expression in E. coli” value read?
A: not soluble

Q: For “MAHHHHHHMGGPPTIEELKREKIIPHVFPDENVDLTVDMYISFKSGKEVNHGNILDLAGTGSVPRNIKFSEEPPEDYCYILFMIDPDFPSRRRPDGRDYVHWAVSGIKSKELVKGTDKNCITLLPYVGPSIKKGTGLHRISFILSLVKEENKGNVTGVPLYRGEHYITRVKFNNCQSAYNVIQMNDMKIVGFNWCQMRRK”, which “soluble on expression in E. coli” value is on record?
A: soluble

Q: Which “soluble on expression in E. coli” value does the source give for “MAIKNAFYAQSGGVTAVINASACGVIQTARKHPDQIGKVYAGRNGIIGALKEELIDTSLESDDAIQALIHTPGGAFGSCRYKLKNISENQREYERLIEVFRAHDIGYFFYNGGGDSQDTAYKVSQLADRMGYPITCIGVPKTVDNDLPFTDCCPGFGSVAKYIATSTLEASLDIKSMCETSTKVFILEVMGRHAGWIAAAGGLAGQSEGEPPHVILFPEIPFNREKFLERVDQCVRDYGYCVVVASEGAQYEDGRFVADAGAKDAFGHTQLGGVAPALANMVKQALGHKYHWAVADYLQRAARHIASATDVEQAYAVGKAAVEMALAGKQALMPTIVRDQAKPYRWSIGEANLSEVANQEKKMPIHYITDNGFGITQDCRDYLQPLIAGESFPPFDDGLPRVAKLKNQLVEKKLRTEFEL” here?
A: soluble
